Common to all, as to assay: PathHunter β-arrestin assay
Holding throughout (assay type): cell-based

Test [1] addresses T1, CCR3 (Homo sapiens, UniProt P51677).
T1 construct: purchased Eurofins DiscoverX (PathHunter gpcrMAX)
T1 sequence (P51677 1-355): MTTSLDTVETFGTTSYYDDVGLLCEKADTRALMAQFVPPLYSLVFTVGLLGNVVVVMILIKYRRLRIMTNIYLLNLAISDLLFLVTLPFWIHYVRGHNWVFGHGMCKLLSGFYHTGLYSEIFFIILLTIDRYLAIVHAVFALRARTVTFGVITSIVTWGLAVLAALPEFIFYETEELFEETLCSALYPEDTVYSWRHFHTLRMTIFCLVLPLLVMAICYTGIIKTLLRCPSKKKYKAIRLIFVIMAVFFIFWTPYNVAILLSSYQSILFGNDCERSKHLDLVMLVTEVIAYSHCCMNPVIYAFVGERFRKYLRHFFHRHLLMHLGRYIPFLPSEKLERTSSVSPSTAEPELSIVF
The note with it: screen, control agonist; CHO, 37C, 2HR.

In test [2] the target is T2, CCR7 (Homo sapiens, UniProt P32248).
T2 construct: purchased Eurofins DiscoverX (PathHunter gpcrMAX)
T2 sequence (P32248 25-378): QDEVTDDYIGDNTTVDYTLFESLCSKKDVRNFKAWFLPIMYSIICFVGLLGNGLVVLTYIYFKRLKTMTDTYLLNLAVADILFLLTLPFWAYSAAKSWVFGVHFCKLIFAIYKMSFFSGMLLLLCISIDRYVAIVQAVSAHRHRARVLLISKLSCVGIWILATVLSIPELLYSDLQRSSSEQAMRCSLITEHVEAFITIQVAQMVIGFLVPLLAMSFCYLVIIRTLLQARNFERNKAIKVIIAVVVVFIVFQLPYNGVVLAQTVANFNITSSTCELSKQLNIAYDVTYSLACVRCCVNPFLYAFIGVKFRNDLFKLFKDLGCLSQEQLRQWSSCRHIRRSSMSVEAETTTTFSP
The following applies: screen, control agonist; CHO, 37C, 2HR.

Test [3] addresses T3, CXCR1 (Homo sapiens, UniProt P25024).
T3 construct: purchased Eurofins DiscoverX (PathHunter gpcrMAX)
T3 sequence (P25024 1-350): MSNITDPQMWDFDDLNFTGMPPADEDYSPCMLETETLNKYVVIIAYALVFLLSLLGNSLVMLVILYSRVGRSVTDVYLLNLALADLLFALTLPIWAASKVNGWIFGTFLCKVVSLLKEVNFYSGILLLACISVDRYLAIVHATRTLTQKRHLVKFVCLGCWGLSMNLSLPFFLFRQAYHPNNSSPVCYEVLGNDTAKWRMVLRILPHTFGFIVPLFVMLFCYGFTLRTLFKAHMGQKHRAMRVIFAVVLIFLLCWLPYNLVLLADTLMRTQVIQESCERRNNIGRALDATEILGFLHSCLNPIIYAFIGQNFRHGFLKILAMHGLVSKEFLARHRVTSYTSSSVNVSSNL
The note with it: screen, control agonist; U20S, 37C, 2HR.

Test [4] addresses T4, CXCR2 (Homo sapiens, UniProt P25025).
T4 construct: purchased Eurofins DiscoverX (PathHunter gpcrMAX)
T4 sequence (P25025 1-360): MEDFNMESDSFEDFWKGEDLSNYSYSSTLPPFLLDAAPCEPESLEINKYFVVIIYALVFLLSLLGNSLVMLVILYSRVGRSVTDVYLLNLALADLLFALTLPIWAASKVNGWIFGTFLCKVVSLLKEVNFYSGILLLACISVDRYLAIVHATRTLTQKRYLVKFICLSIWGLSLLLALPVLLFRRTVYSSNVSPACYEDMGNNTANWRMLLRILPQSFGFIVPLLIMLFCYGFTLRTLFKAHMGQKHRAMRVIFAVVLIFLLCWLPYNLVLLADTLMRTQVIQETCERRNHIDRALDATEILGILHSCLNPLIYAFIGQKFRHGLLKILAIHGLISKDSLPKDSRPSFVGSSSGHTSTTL
The note with it: screen, control agonist; CHO, 37C, 2HR.

For test [5], the target named is T5, CALCR (Homo sapiens, UniProt P30988).
T5 construct: purchased Eurofins DiscoverX (PathHunter gpcrMAX)
T5 sequence (P30988 25-474): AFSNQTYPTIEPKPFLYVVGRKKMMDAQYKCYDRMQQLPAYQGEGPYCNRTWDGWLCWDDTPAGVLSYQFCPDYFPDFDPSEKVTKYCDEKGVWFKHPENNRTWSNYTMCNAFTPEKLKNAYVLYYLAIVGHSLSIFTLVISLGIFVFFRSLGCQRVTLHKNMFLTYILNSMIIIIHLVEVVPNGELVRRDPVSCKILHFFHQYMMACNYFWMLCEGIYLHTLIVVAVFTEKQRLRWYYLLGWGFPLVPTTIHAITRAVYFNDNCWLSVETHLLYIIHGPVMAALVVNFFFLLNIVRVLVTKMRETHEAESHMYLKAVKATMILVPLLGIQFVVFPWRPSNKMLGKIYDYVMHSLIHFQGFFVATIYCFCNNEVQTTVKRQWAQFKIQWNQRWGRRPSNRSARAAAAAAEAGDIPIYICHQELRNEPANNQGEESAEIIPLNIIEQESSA
The following applies: screen, control agonist; U2OS, 37C, 2HR.

The target in test [6] is T6, CALCR-RAMP3 (Homo sapiens, UniProt O60896+P30988).
T6 construct: purchased Eurofins DiscoverX (PathHunter gpcrMAX)
T6 sequence (P30988 25-474): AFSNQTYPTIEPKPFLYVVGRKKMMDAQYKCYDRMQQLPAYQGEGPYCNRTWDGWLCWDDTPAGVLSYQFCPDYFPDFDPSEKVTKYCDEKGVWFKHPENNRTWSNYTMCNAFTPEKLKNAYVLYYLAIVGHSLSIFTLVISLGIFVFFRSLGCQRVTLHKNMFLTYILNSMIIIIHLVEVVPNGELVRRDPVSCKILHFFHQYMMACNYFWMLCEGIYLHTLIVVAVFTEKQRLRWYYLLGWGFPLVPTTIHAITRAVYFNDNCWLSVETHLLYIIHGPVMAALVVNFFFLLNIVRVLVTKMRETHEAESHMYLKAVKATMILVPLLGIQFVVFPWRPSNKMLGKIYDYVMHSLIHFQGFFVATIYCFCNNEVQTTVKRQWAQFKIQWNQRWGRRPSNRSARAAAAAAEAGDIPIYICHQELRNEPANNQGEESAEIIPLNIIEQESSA
T6 sequence (O60896 24-148 partner): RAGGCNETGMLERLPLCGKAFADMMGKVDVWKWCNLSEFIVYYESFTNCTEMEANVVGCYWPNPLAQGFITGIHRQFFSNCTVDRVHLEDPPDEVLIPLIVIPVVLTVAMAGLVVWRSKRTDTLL
The following applies: screen, control agonist; CHO, RT, 2HR.

The target in test [7] is CALCR-RAMP2 (Homo sapiens, UniProt O60895+P30988). The following applies: control agonist.
For test [8], the target named is T7, CRHR2 (Homo sapiens, UniProt Q13324).
T7 construct: purchased Eurofins DiscoverX (PathHunter gpcrMAX)
The note with it: screen, control agonist; CHO, RT, 2HR.

Test [9] deals with T8, CX3CR1 (Homo sapiens, UniProt P49238).
T8 construct: purchased Eurofins DiscoverX (PathHunter gpcrMAX)
T8 sequence (P49238 1-355): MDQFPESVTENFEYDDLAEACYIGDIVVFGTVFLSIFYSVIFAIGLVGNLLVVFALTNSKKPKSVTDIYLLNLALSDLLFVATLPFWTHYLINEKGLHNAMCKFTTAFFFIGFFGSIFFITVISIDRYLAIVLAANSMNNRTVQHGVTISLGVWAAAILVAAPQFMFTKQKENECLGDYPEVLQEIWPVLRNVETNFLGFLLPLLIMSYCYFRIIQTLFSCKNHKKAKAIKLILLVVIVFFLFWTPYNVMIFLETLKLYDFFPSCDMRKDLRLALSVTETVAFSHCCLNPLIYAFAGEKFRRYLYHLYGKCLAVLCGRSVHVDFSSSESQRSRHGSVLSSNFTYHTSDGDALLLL
The note with it: screen, control agonist; CHO, 37C, 2HR.

CALCR-RAMP2, sequence (O60895 43-175 partner, one chain of several): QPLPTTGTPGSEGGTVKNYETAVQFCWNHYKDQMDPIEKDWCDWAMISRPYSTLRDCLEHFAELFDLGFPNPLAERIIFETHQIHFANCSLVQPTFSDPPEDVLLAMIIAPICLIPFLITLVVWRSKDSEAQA
T7 sequence (Q13324 whole entry): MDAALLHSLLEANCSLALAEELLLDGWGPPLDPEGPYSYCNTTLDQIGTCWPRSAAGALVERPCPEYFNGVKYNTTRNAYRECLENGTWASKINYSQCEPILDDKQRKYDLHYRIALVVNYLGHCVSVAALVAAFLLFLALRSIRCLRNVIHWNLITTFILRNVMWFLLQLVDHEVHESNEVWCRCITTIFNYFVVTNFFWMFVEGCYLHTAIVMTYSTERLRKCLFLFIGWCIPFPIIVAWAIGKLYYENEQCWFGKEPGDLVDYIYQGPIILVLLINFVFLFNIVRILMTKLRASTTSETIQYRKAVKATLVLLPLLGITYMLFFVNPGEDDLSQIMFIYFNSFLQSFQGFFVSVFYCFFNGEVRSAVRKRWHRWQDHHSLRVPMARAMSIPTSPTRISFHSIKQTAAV

Consider CCL13: control agonist, for which, in test [1], the EC80 – broadly, the concentration at which the effect reaches the 80% level – turned out to be 46.4 nM.
In the case of CCL19: control agonist, the concentration for an effect of 80% (EC80) in test [2] is 18.9 nM.
As to CXCL8: control agonist, the figures for the EC80 in test [3] and in test [4] were 4.95 nM and 0.953 nM, respectively.
Turning to Calcitonin, the EC80 in test [5] was 37.7 nM; in [6], 1150 nM; in test [7] (follow-up concentration-response assays), 35 nM; in test [7] (screen, CHO, 37C, 2HR) it was 30.5 nM.
Molecule Sauvagine returned an 80% effect concentration (EC80) in [8] of 24.7 nM.

B1: Fractalkine: control agonist (protein, UniProt P78423 25-397, looked up)
Fractalkine: QHHGVTKCNITCSKMTSKIPVALLIHYQQNQASCGKRAIILETRQHRLFCADPKEQWVKDAMQHLDRQAAALTRNGGTFEKQIGEVKPRTTPAAGGMDESVVLEPEATGESSSLEPTPSSQEAQRALGTSPELPTGVTGSSGTRLPPTPKAQDGGPVGTELFRVPPVSTAATWQSSAPHQPGPSLWAEAKTSEAPSTQDPSTQASTASSPAPEENAPSEGQRVWGQGQSPRPENSLEREEMGPVPAHTDAFQDWGPGSMAHVSVVPVSSEGTPSREPVASGSWTPKAEEPIHATMDPQRLGVLITPVPDAQAATRRQAVGLLAFLGLLFCLGVAMFTYQSLQGCPRKMAGEMAEGLRYIPRSCGSNSYVLVPV
B1 showed an EC80 in test [9] of 1.92 nM.

Source of the values: article PMC9798004 (Frontiers in Psychiatry, 2022).
